# Experimental data from publication PMC3789969, “The Allosteric Role of the AAA^+ Domain of ChlD Protein from the Magnesium Chelatase of Synechocystis Species PCC 6803” (The Journal of Biological Chemistry, 2013).
# B1: magnesium chelatase (ChlI, His6-ChlD, His6-ChlH); porphyrin site (Synechocystis sp. PCC 6803 substr. Kazusa) (protein)
# chain: MFTNVKSTIRRVDPEALNGRQLLKVVYVVLESQYQSALSAAVRNINRTNSSLAIQLTGYLIEELRDPENYANFKHDVSEANLFIASLIFIEDLADKVVEAVTPYRDNLDAAIVFPSMPQVMRLNKMGSFSMAQLGQSKSAIAQFMKKRKENSSGAGFQDAMLKLLRTLPTVLKYLPVEKAQDARNFMLSFQYWLGGSQENLENFLLMLTDKYVYPDLGLDKLVNYQEPVVYPDMGIWHPLSMQMFENVKDYLEWYNQRPDISEDLKDPLAPCIGLIMQRTHLVTGDDAHYVGMVQELEAMGARVICVFSGGLDFSKPVNEYFWDKSVNGVEPLPIVDAVVSLTGFALVGGPARQDHPRAIESLKKLNRPYMCALPLVFQTTEEWEASDLGLHPIQVALQIAIPELDGAIEPIILSGRDGSTGRAIALQDRLEAIAQRAMKWANLRKKPKLDKKVAITVFSFPPDKGNVGTAAYLDVFGSIYEVMKGLQGNGYDVQDLPGSAKELMEAVIHDAQAQYNSPELNIAHRMSVEQYERLTPYSVRLEENWGKPPGHLNSDGQNLLIYGKEFGNVFIGVQPTFGYEGDPMRLLFSRSASPHHGFAAYYTYLNHIWKADAVLHFGTHGSLEFMPGKQMGMSGECYPDNLIGTIPNLYYYAANNPSEATIAKRRGYASTISYLTPPAENAGLYKGLQELNELIGSYQTLKDSGRGIQIVNTIMDQARICNLDQDVNLPDINAEEMDQGQRDTIVGSVYRKLMEIESRLLPCGLHVIGQPPSAEEAIATLVNIASLDREDEGIWALPTLIAESIGRNMEEIYRNSDKGILADVELLQDITLATRAAVAALVQEQINADGRVSFVSKLNFFKIGKKAPWVKSLCDSGYPNVNEEKLKPLFEYLEFCLEQVCADNEFGGLLQALEGEYVLPGPGGDPIRNPNVLPTGKNIHALDPQSIPTLAAVQSAKVVVDRLLERQRAENGGNYPETIASVLWGTDNIKTYGESLAQIMWMVGAKPVPDALGRVNKIELVPLEELGRPRIDVVVNCSGVFRDLFINQMNLLDQAVKLAAEADEPLEMNFVRKHALEQAEEMGIGVREAATRIFSNASGSYSSNVNLAVENSSWEDESELQEMYLKRKSFAFNSDNPGMMDQNRDMFERALKTADATFQNLDSSEISLTDVSHYFDSDPTKLISTLRDDGKAPAAYIADTTTANAQVRTLSETVRLDARTKLLNPKWYEGMLSHGYEGVRELSKRLVNTMGWSATAGAVDNWVYEDANSTFIKDEEMCKRLMDLNPNSFRRMVSTLLEVNGRGYWETSDENLERLQELYQEVEDRIEGVE
# notes: recombinant from E. coli; His6 tags on ChlD and ChlH; copies are assay ratio; with Magnesium-chelatase subunit ChlI; Magnesium-chelatase subunit ChlD
# B2: magnesium chelatase (ChlI, His6-ChlD, His6-ChlH); nucleotide sites (Synechocystis sp. PCC 6803 substr. Kazusa) (protein)
# chain 1: MTATLAAPSKTRRVVFPFTAIVGQDEMKLALLLNVIDPKIGGVMIMGDRGTGKSTTIRALADLLPEIEVVANDPFNSSPSDPEMMSEEVRIRVDSQEPLSIVKKKVTMVDLPLGATEDRVCGTIDIEKALSEGVKAFEPGLLAKANRGILYVDEVNLLDDHLVDVLLDSAAGGWNTVEREGISIRHPARFVLVGSGNPEEGELRPQLLDRFGMHAEIRTVREPELRVKIVEQRTEFDQNPHPFCDQYQTEQEALQAKIVNAQNLLPQVTIDYDYRVKVSEVCAELDVDGLRGDIVTNRAAKALAAFEGRTEVTVDDISRVIVLCLRHRLRKDPLESIDSGSKVEKVFKRVFGVVDEA
# chain 2: not shown
# notes: recombinant from E. coli; His6 tags on ChlD and ChlH, ChlI untagged; ATPase sites in ChlI, allosteric nucleotide site proposed in ChlD; with Magnesium-chelatase subunit ChlH
# B3: magnesium chelatase (ChlI, His6-ChlD, His6-ChlH); nucleotide sites (Synechocystis sp. PCC 6803 substr. Kazusa; P72772:R208A) (protein)
# chain 1: MTATLAAPSKTRRVVFPFTAIVGQDEMKLALLLNVIDPKIGGVMIMGDRGTGKSTTIRALADLLPEIEVVANDPFNSSPSDPEMMSEEVRIRVDSQEPLSIVKKKVTMVDLPLGATEDRVCGTIDIEKALSEGVKAFEPGLLAKANRGILYVDEVNLLDDHLVDVLLDSAAGGWNTVEREGISIRHPARFVLVGSGNPEEGELRPQLLDRFGMHAEIRTVREPELRVKIVEQRTEFDQNPHPFCDQYQTEQEALQAKIVNAQNLLPQVTIDYDYRVKVSEVCAELDVDGLRGDIVTNRAAKALAAFEGRTEVTVDDISRVIVLCLRHRLRKDPLESIDSGSKVEKVFKRVFGVVDEA
# chain 2: not shown
# notes: as for B2
# B4: magnesium chelatase (ChlI, His6-ChlD, His6-ChlH); nucleotide sites (Synechocystis sp. PCC 6803 substr. Kazusa; P72772:R289A) (protein)
# chain 1: MTATLAAPSKTRRVVFPFTAIVGQDEMKLALLLNVIDPKIGGVMIMGDRGTGKSTTIRALADLLPEIEVVANDPFNSSPSDPEMMSEEVRIRVDSQEPLSIVKKKVTMVDLPLGATEDRVCGTIDIEKALSEGVKAFEPGLLAKANRGILYVDEVNLLDDHLVDVLLDSAAGGWNTVEREGISIRHPARFVLVGSGNPEEGELRPQLLDRFGMHAEIRTVREPELRVKIVEQRTEFDQNPHPFCDQYQTEQEALQAKIVNAQNLLPQVTIDYDYRVKVSEVCAELDVDGLRGDIVTNRAAKALAAFEGRTEVTVDDISRVIVLCLRHRLRKDPLESIDSGSKVEKVFKRVFGVVDEA
# chain 2: not shown
# notes: as for B2
# B5: magnesium chelatase (ChlI, His6-ChlD, His6-ChlH); nucleotide sites (Synechocystis sp. PCC 6803 substr. Kazusa; P72772:E152Q) (protein)
# chain 1: MTATLAAPSKTRRVVFPFTAIVGQDEMKLALLLNVIDPKIGGVMIMGDRGTGKSTTIRALADLLPEIEVVANDPFNSSPSDPEMMSEEVRIRVDSQEPLSIVKKKVTMVDLPLGATEDRVCGTIDIEKALSEGVKAFEPGLLAKANRGILYVDEVNLLDDHLVDVLLDSAAGGWNTVEREGISIRHPARFVLVGSGNPEEGELRPQLLDRFGMHAEIRTVREPELRVKIVEQRTEFDQNPHPFCDQYQTEQEALQAKIVNAQNLLPQVTIDYDYRVKVSEVCAELDVDGLRGDIVTNRAAKALAAFEGRTEVTVDDISRVIVLCLRHRLRKDPLESIDSGSKVEKVFKRVFGVVDEA
# chain 2: not shown
# notes: as for B2
# Legend:
# Assay type in all cases: biochemical, Synechocystis sp. PCC 6803
# [1] = substrate: CC1=C(CCC(=O)O)c2cc3nc(cc4[nH]c(cc4C)cc4[nH]c(cc1n2)cc4C)C(C)=C3CCC(=O)O; experiment: continuous fluorometric MgDIX formation assay, Michaelis-Menten fit; conditions: 5 mM ATP, Mg2+, pH 7.7, 34 °C, I 0.1
# [2] = substrate: Nc1ncnc2c1ncn2[C@@H]1O[C@H](COP(=O)(O)OP(=O)(O)OP(=O)(O)O)[C@@H](O)[C@H]1O; experiment: continuous fluorometric MgDIX formation assay, Hill fit; conditions: 10 mM free Mg2+, 8 μM DIX, pH 7.7, 34 °C
# [3] = substrate: Nc1ncnc2c1ncn2[C@@H]1O[C@H](COP(=O)(O)OP(=O)(O)OP(=O)(O)O)[C@@H](O)[C@H]1O; experiment: continuous fluorometric MgDIX formation assay, Michaelis-Menten fit; conditions: 10 mM free Mg2+, 8 μM DIX, pH 7.7, 34 °C, I 0.1, non-cooperative
protein,measurement,setting,value
B1,Km,[1],5.74 ± 0.77 µM
same,kcat,[1],0.0188 ± 0.001 s⁻¹
B2,K0.5,"[2]; I 0.1, Hill n 2.0 ± 0.2",0.43 ± 0.02 mM
same,kcat,"[2]; I 0.1, Hill n 2.0 ± 0.2",0.00675 ± 0.000233 s⁻¹
B3,K0.5,"[2]; I 0.1, Hill n 2.0 ± 0.10",0.78 ± 0.02 mM
same,kcat,"[2]; I 0.1, Hill n 2.0 ± 0.10",0.00438 ± 8.3e-05 s⁻¹
B4,Km,[3],1790 ± 320 µM
same,kcat,[3],0.0009 ± 8.3e-05 s⁻¹
B5,K0.5,"[2]; I 0.1, Hill n 1.8 ± 0.17",0.72 ± 0.04 mM
same,kcat,"[2]; I 0.1, Hill n 1.8 ± 0.17",0.0018 ± 6.7e-05 s⁻¹
